From the nanobody polyreactivity screen of Harvey et al. (2022)

Experiment: yeast display, Sf9 membrane polyspecificity reagent, FACS + sequencing; frameworks hold sequencing errors
In short: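 A nanobody's polyreactivity label depends on the gate it was sorted from. Yeast display cells were stained with 10% biotinylated, detergent-solubilized Sf9 membrane reagent for 1 hour at 4 °C, enriched on streptavidin microbeads and sorted by FACS. The low and high (top ~1%) gates were set on anti-HA fluorescence for expression and streptavidin fluorescence for reagent binding.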

Row | Sequence | polyreactivity (PSR sort gate)
1 | QVQLVESGGGLVQAGGSLRLSCAASGRIFQKNAMGWYRQAPGKERELVAAISGSGSTTNYADSVKGRFTISRDNAKNTVYLQLNSLTPEDTAVYYCATGKRGVSGRGFRYDYWGQGTQVTVSS | high polyreactivity
2 | QVQLVESGGGLVQAGGSLRLSCAASGRIFQRYAMGWYRQAPGKERELVAAITTGGRTYYADSVKGRFTISRDNAKNTVYLQMNSLKPEDTAVYYCAARFVGSRYRFDYWGQGTQVTVSS | high polyreactivity
3 | QVQLVESGGGLVQAGGSLRLSCAASGRIFQYNPMGWYIQAPGKERELVADITWIGGSTYADSVKGRFTISRDTAKNTVYLQMNSLKPEDTAVYYCNARYIYRFDYWGQGSQVTVSS | low polyreactivity
4 | QVQLVESGGGLVQAGGSLRLSCAASGRIFQYNVMGWYRQAPGKERELVAAISSGGNTYYADSVKGRFTISRDNAKNTVYLQMNSLKPEDTAVYYCAADHYVPWPNYDYDYWGQGTQVTVSS | low polyreactivity
5 | QVQLVESGGGLVQAGGSLRLSCAASGRIFQYSAMGWYRQAPGKEREFVASITFRGGRTNYADSVKGRFTISRDNAKNTVYLQMNSLKPEDTAVYYCAVSLRRGGSGYAYDYWGQGTQVTVSS | high polyreactivity
6 | QVQLVESGGGLVQAGGSLRLSCAASGRIFQYYAAMGWYRQAPGKERELVASIRATGGSTYYADSVKGRFTISRDNAKNTVYLQMNSLKPEDTAVYYCAARFAAKSLPAYDYWGQGTQVTVSS | low polyreactivity
7 | QVQLVESGGGLVQAGGSLRLSCAASGRIFQYYDMGWYRQAPGKERELVAAITFSGGSTYYADSVKGRFTISRDNAKNTVYLQMNSLKPEDTAVYYCARGYWVYYPDGDYWGQGTQVTVSS | low polyreactivity
8 | QVQLVESGGGLVQAGGSLRLSCAASGRIFQYYDMGWYRQAPGKERELVATITSGGSTNYADSVKGRFTISRDNAKNTVYLQMNSLKPEDTAVYYCAALAYTASDYQPYDATEYNYWGQGTQVTVSS | low polyreactivity
9 | QVQLVESGGGLVQAGGSLRLSCAASGRIFRANAMGWSRQAPGKERELVAAISTSGGSTTYADSVKGRFTISRDNSKNTVYLQMNSLKPEDTAVYYCAVDSWLKWRDKWVIRHDYWGQGTQVTVSS | high polyreactivity
10 | QVQLVESGGGLVQAGGSLRLSCAASGRIFRAYTMGWYRQAPGKERELVAAITWRGGRTYYADSVKGRFTISRDNAKNTVYLQMNSLKPEDTAVYYCAAVRKYRAMDYWGQGTQVTVSS | high polyreactivity
11 | QVQLVESGGGLVQAGGSLRLSCAASGRIFRDNAMGWYRQAPGKERELVAAISRRGGSTYYADSVKGRFTISRDNAKNTVYLQMNSLKPEDTAVYYCNKTTQSRTFRYDYWGQGTQVTVSS | low polyreactivity
12 | QVQLVESGGGLVQAGGSLRLSCAASGRIFRDYAMGWYRQAPGNERELVAAISWSGGSTYYADSVKGRFTISRDNAKNTVYLQMNSLKPEDTAVYYCAGDYYGGDSYRYDYWGQGTQVTVSS | low polyreactivity
13 | QVQLVESGGGLVQAGGSLRLSCAASGRIFRDYSMGWYRQAPGKETELVATITWSGATTYYADSVKGRFTISRDNAKNTVYLQMNSLKPEDTAVYYCNTDTDVDVAFDSWGQGTQVTVSS | low polyreactivity
14 | QVQLVESGGGLVQAGGSLRLSCAASGRIFRDYVMGWYRQAPGKERELVAGITGSVDSTNYADSVKGRFTISRDNAKNTVYLQMNSLKPEDTAVYYCNAEFWRGTYRFGYWGQGTQVTVSS | low polyreactivity
15 | QVQLVESGGGLVQAGGSLRLSCAASGRIFRFYAMGWYRQAPGKDRELVAAISSRGGSTYYADSVTGRFTISRDNAKNTVYLQMNSLKPEDTAVYYCAKRSQKAYKYRDYRFDYWGQGTQVTVSS | high polyreactivity
16 | QVQLVESGGGLVQAGGSLRLSCAASGRIFRGNAMGWYRQAPGKERELVAAISWGGGSTYYAYSVKGRFTISRDNAKNTVYLQMNSLKPEDTAVYYWNKEYVFWRFPNWYTYGYWGQGTQVTLSS | high polyreactivity

Row | Sequence | polyreactivity (PSR sort gate)
17 | QVQLVESGGGLVQAGGSLRLSCAASGRIFRGNVMGWYIQAPGKERELVATITSSARTYYADSVKGRFTISRDNAMITVYLQMNSLKPEDTAVYYCAAKTRWNFYYWGQGTQVSVSS | high polyreactivity
18 | QVQLVESGGGLVQAGGSLRLSCAASGRIFRGNVMGWYRQAPGKERELVAVIRSSSGRTYYADSVKGRFTISRDNAKNTVYLQMNSLKPEDTAVYYCAAKSVWGQGTQVTVSS | high polyreactivity
19 | QVQLVESGGGLVQAGGSLRLSCAASGRIFRGYAMGWYRQAPGKEREFVDAITKNGGSTYYADSVKGRFTISRDNAKNTVYLQMNSLKPEDTAVYYCAVRAWDPYTGKSEYWGQGTQVTVSS | low polyreactivity
20 | QVQLVESGGGLVQAGGSLRLSCAASGRIFRGYAMGWYRQAPGKERELVAAISGGGGSTYYADSVKGRFTISRDNAKNTVYLQMNSLKPEDTAVYYCNALRIRGSKVFEGDYWGQGTQVTVSS | high polyreactivity
21 | QVQLVESGGGLVQAGGSLRLSCAASGRIFRGYAMGWYRQAPGKERELVAAISNGGGTNYADTVKGRFTISRDNAKNTVYLQMNSLKPEDTAVYYCATGFLQNYYKYTSSFRFYYWGQGTQVTVSS | high polyreactivity
22 | QVQLVESGGGLVQAGGSLRLSCAASGRIFRGYAMGWYRQAPGKERELVAAITRGGSTKYADSVKGRFTISRDNAKNTVYLQMNSLKPEDTAVYYCAKDSYPYVPLYRSRSLYGYWGQGTQVTVSS | high polyreactivity
23 | QVQLVESGGGLVQAGGSLRLSCAASGRIFRGYAMGWYRQAPGKERELVATISAIGGSTYADSVKGRFTISRHNAKNTVYLQMNSLKPEDTAVYYCNVRKVYRYQYRFEYWGQGTQVTVSS | high polyreactivity
24 | QVQLVESGGGLVQAGGSLRLSCAASGRIFRGYGMAWYRQAPGKERELVAAISRGGNTDYADSVKGRFTISRDNANNTVYLQMNSLKPEETAVYYCAVGYVSYRKLYLYNSWGQGTQVTVSS | high polyreactivity
25 | QVQLVESGGGLVQAGGSLRLSCAASGRIFRGYTMGGYRQAPGKERELVADITKRGGSTDYADSVKGRFTISRDNAKNTVYLQMNSLKPEDTEVYSCAARGPTFGVDYGYWGQGTQVTGSS | high polyreactivity
26 | QVQLVESGGGLVQAGGSLRLSCAASGRIFRGYVMGWYIQAPGKERELVAAISINGGRTYYADSVKGRFTISRDNAKNTVYLQMNSLKPEDTAVYYCAAEPIYFRGLYYYWGLGTQVTVSS | high polyreactivity
27 | QVQLVESGGGLVQAGGSLRLSCAASGRIFRHNAMGWYRQAPGKERELVDAITSRGGTYNAHSVKGRFTISRDNAKITVFLQMTSLNPEETAVYFCNADEALYSSGNKYDYWGQGTQVSVSS | low polyreactivity
28 | QVQLVESGGGLVQAGGSLRLSCAASGRIFRHYAMGWYRQAPGKERELVAAISGGGGRTYYADSVKGRFTISRDNAKNTVYLQMNSLKPEDTAVYYCAKRPSYAYSRYRKGHDYWGQGTQVTVSS | high polyreactivity
29 | QVQLVESGGGLVQAGGSLRLSCAASGRIFRINGMGWYRQAPGKEREFVAAITSGGGTYYADSVKGRFTISRDNAKNTVYLQMNSLKPEDTAVYYCAAPSYRTRYYYWGQGTQVTVSS | high polyreactivity
30 | QVQLVESGGGLVQAGGSLRLSCAASGRIFRINGMGWYRQAPGKEREFVAAITSGGGTYYADTVKGRFTISRDNAKNTVYLQMNSLKPEDTAVYYCAAPSYRTRYYYWGQGTQVTVSS | high polyreactivity
31 | QVQLVESGGGLVQAGGSLRLSCAASGRIFRIYAMGWNRQAPGKERELVARLTYSGGSTYYADSVKGRFTISRDNAKNTVYLQMNSLKPEDTAVYYCAADWLGYQYGYWGQGTQVTVSS | low polyreactivity
32 | QVQLVESGGGLVQAGGSLRLSCAASGRIFRIYAMGWYRQAPGKERELVASISDRGTRTYYADSVKGRFTISRDNAKNTVYLQMNSLKPEDTAVYYCAASTYTKFHTYYKSQASDYWGQGTQVTVSS | high polyreactivity
